According to patent publication US20260015426A1 (23ANDME, published 2026):
Where a chain is given by its changes, count along the chain named. Numbers in names are those of the source.

T1: hu-M-IL1RAP construct, positions S21-T367 (extracellular domain of the membrane form of human IL1RAP) (human, UniProt Q9NPH3 21-367)
T1 construct: Biotinylated when captured on the Biacore chip
T1 sequence: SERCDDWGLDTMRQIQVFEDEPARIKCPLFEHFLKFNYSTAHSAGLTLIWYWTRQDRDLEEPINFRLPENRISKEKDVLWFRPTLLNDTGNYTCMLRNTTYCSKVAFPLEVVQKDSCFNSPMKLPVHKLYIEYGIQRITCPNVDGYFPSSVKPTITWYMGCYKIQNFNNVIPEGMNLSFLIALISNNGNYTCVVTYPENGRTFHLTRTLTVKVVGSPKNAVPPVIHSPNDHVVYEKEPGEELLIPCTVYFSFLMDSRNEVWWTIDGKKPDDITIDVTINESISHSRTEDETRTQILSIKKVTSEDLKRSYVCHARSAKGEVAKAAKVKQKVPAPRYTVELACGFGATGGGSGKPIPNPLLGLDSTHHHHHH

T2: human IL1RAP (hu-IL1RAP) on human cells (human, UniProt Q9NPH3 21-570)
T2 sequence: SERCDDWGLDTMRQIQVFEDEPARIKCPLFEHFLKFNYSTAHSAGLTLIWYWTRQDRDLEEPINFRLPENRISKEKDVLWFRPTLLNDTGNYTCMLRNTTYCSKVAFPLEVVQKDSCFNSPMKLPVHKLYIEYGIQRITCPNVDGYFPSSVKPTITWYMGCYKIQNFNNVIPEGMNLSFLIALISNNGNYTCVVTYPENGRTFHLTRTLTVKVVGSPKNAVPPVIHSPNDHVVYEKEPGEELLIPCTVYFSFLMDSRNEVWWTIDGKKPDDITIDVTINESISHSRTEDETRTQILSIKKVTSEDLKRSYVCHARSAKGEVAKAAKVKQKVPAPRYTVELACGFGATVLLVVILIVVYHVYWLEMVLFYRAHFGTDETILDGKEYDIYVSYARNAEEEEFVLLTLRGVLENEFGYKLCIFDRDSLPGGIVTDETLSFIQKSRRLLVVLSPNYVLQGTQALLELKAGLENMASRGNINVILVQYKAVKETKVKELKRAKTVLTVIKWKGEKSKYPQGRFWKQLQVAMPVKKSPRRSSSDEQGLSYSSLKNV

B1: Parent Fab (Fab of h11C5_C59Y/A43S) (Fab, V domains shown)
VH: EVQLVESGGGLVQPGGSLRLSCAASGFTFSNYAMSWVRQAPGKGLEWVATVTEGGDYNYYLDDVKGRFTISRDNAKNSLYLQMNSLRAEDTAVYYCARDRWPYFFDYWGQGTLVTVSS
VL: DIQMTQSPSSLSASVGDRVTITCRASENIYSNLAWYQQKPGKSPKLLVYGAKNLADGVPSRFSGSGSGTDYTLTISSLQPEDFATYYCQHFWTTPRTFGGGTKVEIK
notes: Fab with 8xHis tag; also called parental Fab of h11C5_C59Y/A43S
B2: K17 Fab (VL A51Y/W92K) (Fab, V domains shown)
VH: B1 VH
VL: B1 VL with A51Y, W92K
notes: Fab with 8xHis tag
B3: H11 Fab (VH W97F) (Fab, V domains shown)
VH: B1 VH with W101F
VL: B1 VL
notes: Fab with 8xHis tag
B4: H10 Fab (VH F29S/D55G/R96S) (Fab, V domains shown)
VH: B1 VH with F29S, D56G, R100S
VL: B1 VL
notes: Fab with 8xHis tag
B5: H9 Fab (VH G54V/R96A) (Fab, V domains shown)
VH: B1 VH with G55V, R100A
VL: B1 VL
notes: Fab with 8xHis tag
B6: H8 Fab (VH F29S/E52aV/R96A) (Fab, V domains shown)
VH: B1 VH with F29S, E53V, R100A
VL: B1 VL
notes: Fab with 8xHis tag
B7: H12 Fab (VH M34V) (Fab, V domains shown)
VH: B1 VH with M34V
VL: B1 VL
notes: Fab with 8xHis tag
B8: K13/H3 Fab (VL-A51Y/W92I, VH-V51S) (Fab, V domains shown)
VH: B1 VH with V51S
VL: B1 VL with A51Y, W92I
notes: Fab with 8xHis tag
B9: K13/H2 Fab (VL-A51Y/W92I, VH-R96D) (Fab, V domains shown)
VH: B1 VH with R100D
VL: B1 VL with A51Y, W92I
notes: Fab with 8xHis tag
B10: K17/H2 Fab (VL-A51Y/W92K, VH-R96D) (Fab, V domains shown)
VH: B1 VH with R100D
VL: B1 VL with A51Y, W92K
notes: Fab with 8xHis tag
B11: K13/H12 Fab (VL-A51Y/W92I, VH-M34V) (Fab, V domains shown)
VH: B1 VH with M34V
VL: B1 VL with A51Y, W92I
notes: Fab with 8xHis tag
B12: K17/H3 Fab (VL-A51Y/W92K, VH-V51S) (Fab, V domains shown)
VH: B1 VH with V51S
VL: B1 VL with A51Y, W92K
notes: Fab with 8xHis tag
B13: K10/H2 Fab (VL-A51Y, VH-R96D) (Fab, V domains shown)
VH: B1 VH with R100D
VL: B1 VL with A51Y
notes: Fab with 8xHis tag
B14: K10/H3 Fab (VL-A51Y, VH-V51S) (Fab, V domains shown)
VH: B1 VH with V51S
VL: B1 VL with A51Y
notes: Fab with 8xHis tag
B15: c11C5_C59A (antibody, IgG1, V domains shown)
VH: EVQLVESGGGLVKPGGSLKLSCAASGFTFSNYAMSWVRQTPEKRLEWVATVTEGGDYNYALDDVKGRFTISRDNANDNLYLQMSHLKSEDSARYYCARDRWPYFFDYWGQGTTLTVSS
VL: DIQMTQSPASLSVSVGETVTITCRASENIYSNLAWYQQKQGRSPQLLVYGAKNLADGVPSRFSGSGSGTQYSLNINSLQSEDFGTYYCQHFWTTPRTFGGGTKLEIK
notes: Murine VL and VH, human CL and IgG1 CH1-CH3 domains
B16: m11C5_C59S (antibody, mouse IgG2a, V domains shown)
VH: B15 VH with A60S
VL: B15 VL
notes: Murine IgG2a constant domains
B17: m11C5_C59A (antibody, mouse IgG2a, V domains shown)
VH: B15 VH
VL: B15 VL
notes: Murine IgG2a constant domains
B18: h11C5_C59T (antibody, human IgG1, V domains shown)
VH: B1 VH with Y60T
VL: B1 VL with S43A
notes: Human IgG1/kappa constant domains
B19: h11C5_C59S (antibody, human IgG1, V domains shown)
VH: B1 VH with Y60S
VL: B1 VL with S43A
notes: as for B18
B20: h11C5_C59A (antibody, human IgG1, V domains shown)
VH: B1 VH with Y60A
VL: B1 VL with S43A
notes: as for B18

biological target: T1, hu-M-IL1RAP construct, positions …; assay: SPR, Fab analyte, 25 C
Procedure: (§1) Surface plasmon resonance (SPR) analysis was used to determine binding affinity for hu-M-IL1RAP of the purified Fabs containing the selected single, double, and triple mutations in either the VL or VH regions using a BIACORE™ 8K instrument. […] For kinetics measurements, 5 nM biotinylated hu-M-IL1RAP was captured at 10 μL/min to achieve ˜50 response units in the second flow cell (FC2). FC1 was kept as a reference. […] The sensorgrams were recorded and subjected to reference and buffer subtraction before data analysis with the BIACORE® 8K Evaluation Software (version 1.1.1.7442). Association rates (kₒₙ) and dissociation rates (koff) were calculated using a simple one-to-one Langmuir binding model. The equilibrium dissociation constant (KD) was calculated as the ratio of koff/kₒₙ.

In the case of B1, the “apparent Kd (pooled screen)” value is reported as 337 pM.

In the case of B1, the “apparent koff (pooled screen)” value is reported as 0.000468 s⁻¹.

B1 was tested, and the “apparent kon (pooled screen)” value was 1.39e+06 M⁻¹ s⁻¹.

B2 gave a Kd of 6.37 pM.

For B2, the koff was 3.58e-05 s⁻¹.

B2 was tested, and the kon was 5.63e+06 M⁻¹ s⁻¹.

biological target: T1, hu-M-IL1RAP construct, positions …; assay: SPR, Fab analyte, 37 C

With B1 the “apparent Kd (pooled screen)” value was 268 pM.

For B1, the “apparent koff (pooled screen)” value was 0.00163 s⁻¹.

With B1 the “apparent kon (pooled screen)” value was 6.08e+06 M⁻¹ s⁻¹.

Compared with B3, B4 is 3.5-fold lower in Kd: 460 pM for the first, 131 pM for the second.

Compared with B5, B6 is 2.1-fold higher in Kd: 81.1 pM for the first, 170 pM for the second. The first binds more tightly here.

First: B7
Second: B2
The Kd of the first is 6.9-fold higher: 305 pM for the first, 44.1 pM for the second. The second binds more tightly here.

First: B3
Second: B4
The koff of the first is 6.3-fold higher: 0.00441 s⁻¹ for the first, 0.000702 s⁻¹ for the second.

Compared with B5, B6 is 2.2-fold higher in koff: 0.000401 s⁻¹ for the first, 0.000899 s⁻¹ for the second.

Going from B7 to B2, the koff falls from 0.00174 s⁻¹ to 0.000159 s⁻¹ (11-fold).

First: B3
Second: B4
The kon of the first is 1.8-fold higher: 9.58e+06 M⁻¹ s⁻¹ for the first, 5.34e+06 M⁻¹ s⁻¹ for the second.

B5 and B6 are within 1.5-fold of each other in kon: 4.94e+06 M⁻¹ s⁻¹ for the first, 5.27e+06 M⁻¹ s⁻¹ for the second.

Going from B7 to B2, the kon falls from 5.7e+06 M⁻¹ s⁻¹ to 3.6e+06 M⁻¹ s⁻¹ (1.6-fold).

biological target: T1, hu-M-IL1RAP construct, positions …; assay: SPR, Fab analyte, 37 C; remark: another data set of the same source
Procedure: as §1

B8 and B9 are within 1.5-fold of each other in Kd: 21.1 pM for the first, 22.7 pM for the second.

B10 and B11 are within 1.5-fold of each other in Kd: 29.3 pM for the first, 36.3 pM for the second.

Going from B12 to B13, the Kd falls from 31.5 pM to 20.1 pM (1.6-fold).

B14 showed a Kd of 24.2 pM.

B8 and B9 are within 1.5-fold of each other in koff: 0.000109 s⁻¹ for the first, 0.000115 s⁻¹ for the second.

B10 and B11 are within 1.5-fold of each other in koff: 0.000121 s⁻¹ for the first, 0.000178 s⁻¹ for the second.

B12 and B13 are within 1.5-fold of each other in koff: 0.00012 s⁻¹ for the first, 0.000111 s⁻¹ for the second.

B14 gave a koff of 0.000123 s⁻¹.

B8 and B9 are within 1.5-fold of each other in kon: 5.17e+06 M⁻¹ s⁻¹ for the first, 5.08e+06 M⁻¹ s⁻¹ for the second.

B10 and B11 are within 1.5-fold of each other in kon: 4.15e+06 M⁻¹ s⁻¹ for the first, 4.9e+06 M⁻¹ s⁻¹ for the second.

B12 and B13 are within 1.5-fold of each other in kon: 3.81e+06 M⁻¹ s⁻¹ for the first, 5.54e+06 M⁻¹ s⁻¹ for the second.

With B14 the kon was 5.06e+06 M⁻¹ s⁻¹.

biological target: T2, human IL1RAP (hu-IL1RAP) on human cells; assay: cell-based or functional assay

Going from B1 to B8, the “HEK-Blue, IL-1β, % inhibition at 100 nM (Fab)” value (from here on “HEK-Blue, IL-1β, % inhibition”) rises from 96% to 100%.

B9 and B10 are the same in “HEK-Blue, IL-1β, % inhibition” value: 100% for the first, 100% for the second.

B12 and B13 are the same in “HEK-Blue, IL-1β, % inhibition” value: 100% for the first, 100% for the second.

Compared with B14, B2 is higher in “HEK-Blue, IL-1β, % inhibition” value: 99% for the first, 100% for the second.

First: B1
Second: B8
The “HEK-Blue, IL-1β, IC50 (Fab)” value of the first is 8.3-fold higher: 7450 pM for the first, 898 pM for the second.

First: B9
Second: B10
The “HEK-Blue, IL-1β, IC50 (Fab)” value of the first is 3.5-fold lower: 539 pM for the first, 1860 pM for the second.

First: B12
Second: B13
The “HEK-Blue, IL-1β, IC50 (Fab)” value of the first is 2.4-fold higher: 1320 pM for the first, 552 pM for the second.

Compared with B14, B2 is 2.5-fold higher in “HEK-Blue, IL-1β, IC50 (Fab)” value: 642 pM for the first, 1590 pM for the second.

First: B1
Second: B8
The “HEK-Blue, IL-33, % inhibition at 100 nM (Fab)” value (“HEK-Blue, IL-33, % inhibition” for short) of the first is lower: 77% for the first, 99% for the second.

Compared with B9, B10 is lower in “HEK-Blue, IL-33, % inhibition” value: 98% for the first, 97% for the second.

First: B12
Second: B13
The “HEK-Blue, IL-33, % inhibition” value of the first is lower: 98% for the first, 99% for the second.

Going from B14 to B2, the “HEK-Blue, IL-33, % inhibition” value falls from 98% to 96%.

First: B1
Second: B8
The “HEK-Blue, IL-33, IC50 (Fab)” value of the first is 13-fold higher: 26400 pM for the first, 2070 pM for the second.

Going from B9 to B10, the “HEK-Blue, IL-33, IC50 (Fab)” value rises from 2390 pM to 4710 pM (2-fold).

Compared with B12, B13 is 1.6-fold lower in “HEK-Blue, IL-33, IC50 (Fab)” value: 3530 pM for the first, 2170 pM for the second.

First: B14
Second: B2
The “HEK-Blue, IL-33, IC50 (Fab)” value of the first is 2.2-fold lower: 2430 pM for the first, 5380 pM for the second.

Going from B1 to B8, the “HEK-Blue, IL-36α, % inhibition at 100 nM (Fab)” value (“HEK-Blue, IL-36α, % inhibition” for short) rises from 96% to 98%.

Going from B9 to B10, the “HEK-Blue, IL-36α, % inhibition” value rises from 99% to 100%.

B12 and B13 are the same in “HEK-Blue, IL-36α, % inhibition” value: 100% for the first, 100% for the second.

B14 and B2 are the same in “HEK-Blue, IL-36α, % inhibition” value: 100% for the first, 100% for the second.

Compared with B1, B8 is 11-fold lower in “HEK-Blue, IL-36α, IC50 (Fab)” value: 5090 pM for the first, 462 pM for the second.

Compared with B9, B10 is 1.7-fold higher in “HEK-Blue, IL-36α, IC50 (Fab)” value: 548 pM for the first, 930 pM for the second.

Going from B12 to B13, the “HEK-Blue, IL-36α, IC50 (Fab)” value falls from 800 pM to 481 pM (1.7-fold).

Compared with B14, B2 is 2.2-fold higher in “HEK-Blue, IL-36α, IC50 (Fab)” value: 582 pM for the first, 1270 pM for the second.

biological target: T1, hu-M-IL1RAP construct, positions …; assay: BLI (OCTET), mAb captured, 25 C
Procedure: All samples were placed in black 96-well plates and the experiment was performed at 25° C. […] The biosensors were equilibrated in experimental buffer at 25° C. for ten minutes prior to starting the experiment.
The resulting BLI signal from analyte association and dissociation from the immobilized antibody was analyzed using the Octet Data Analysis software (Pall ForteBio). First, a reference subtraction was performed on all recorded traces using the reference well (biosensor that underwent the same steps as experimental wells but no analyte for the Association step), then all the traces were aligned to the beginning of the Association step.

B15 and B16 are within 1.5-fold of each other in Kd: 756 pM for the first, 598 pM for the second.

First: B17
Second: B18
The Kd of the first is 6.4-fold lower: 513 pM for the first, 3260 pM for the second. The first binds more tightly here.

First: B19
Second: B20
The Kd of the first is 1.9-fold lower: 1080 pM for the first, 2060 pM for the second. The first binds more tightly here.
